From paper PMC6138676, “Skeletal Muscle Dystrophy mutant of lamin A alters the structure and dynamics of the Ig fold domain” (Scientific Reports, 2018)

Target: the molecule itself
Experiment: SEC-MALS; 3 mg/ml protein; Superdex 200 Increase 10/300 equilibrated in 25 mM Tris-HCl pH 8.5, 250 mM NaCl; 20 °C; 30 µL injected, 0.6 mL/min

B1: Human lamin A Ig (428-552) (domain or fragment, UniProt P02545 428-552, looked up)
chain: SSFSQHARTSGRVAVEEVDEEGKFVRLRNKSNEDQSMGNWQIKRQNGDDPLLTYRFPPKFTLKAGQVVTIWAAGAGATHSPPTDLVWKAQNTWGCGNSLRTALINSTGEEVAMRKLVRSVTVVED
notes: Ig fold domain of human lamin A, residues 428-552, cloned into pQE-80L between BamHI and KpnI; For the NMR experiments the protein was 13C,15N-labelled; also called wild type Ig; Ig fold domain of lamin A; source: E. coli BL21 (DE3) pLysS, purified (His-Trap column)
For B1, the “stoichiometry N” value was 2.
